Reference: IntAct's records for PubMed 23727230

Target: prp8_yeast PRP8 (UniProt P33334)
Sequence (P33334 whole entry): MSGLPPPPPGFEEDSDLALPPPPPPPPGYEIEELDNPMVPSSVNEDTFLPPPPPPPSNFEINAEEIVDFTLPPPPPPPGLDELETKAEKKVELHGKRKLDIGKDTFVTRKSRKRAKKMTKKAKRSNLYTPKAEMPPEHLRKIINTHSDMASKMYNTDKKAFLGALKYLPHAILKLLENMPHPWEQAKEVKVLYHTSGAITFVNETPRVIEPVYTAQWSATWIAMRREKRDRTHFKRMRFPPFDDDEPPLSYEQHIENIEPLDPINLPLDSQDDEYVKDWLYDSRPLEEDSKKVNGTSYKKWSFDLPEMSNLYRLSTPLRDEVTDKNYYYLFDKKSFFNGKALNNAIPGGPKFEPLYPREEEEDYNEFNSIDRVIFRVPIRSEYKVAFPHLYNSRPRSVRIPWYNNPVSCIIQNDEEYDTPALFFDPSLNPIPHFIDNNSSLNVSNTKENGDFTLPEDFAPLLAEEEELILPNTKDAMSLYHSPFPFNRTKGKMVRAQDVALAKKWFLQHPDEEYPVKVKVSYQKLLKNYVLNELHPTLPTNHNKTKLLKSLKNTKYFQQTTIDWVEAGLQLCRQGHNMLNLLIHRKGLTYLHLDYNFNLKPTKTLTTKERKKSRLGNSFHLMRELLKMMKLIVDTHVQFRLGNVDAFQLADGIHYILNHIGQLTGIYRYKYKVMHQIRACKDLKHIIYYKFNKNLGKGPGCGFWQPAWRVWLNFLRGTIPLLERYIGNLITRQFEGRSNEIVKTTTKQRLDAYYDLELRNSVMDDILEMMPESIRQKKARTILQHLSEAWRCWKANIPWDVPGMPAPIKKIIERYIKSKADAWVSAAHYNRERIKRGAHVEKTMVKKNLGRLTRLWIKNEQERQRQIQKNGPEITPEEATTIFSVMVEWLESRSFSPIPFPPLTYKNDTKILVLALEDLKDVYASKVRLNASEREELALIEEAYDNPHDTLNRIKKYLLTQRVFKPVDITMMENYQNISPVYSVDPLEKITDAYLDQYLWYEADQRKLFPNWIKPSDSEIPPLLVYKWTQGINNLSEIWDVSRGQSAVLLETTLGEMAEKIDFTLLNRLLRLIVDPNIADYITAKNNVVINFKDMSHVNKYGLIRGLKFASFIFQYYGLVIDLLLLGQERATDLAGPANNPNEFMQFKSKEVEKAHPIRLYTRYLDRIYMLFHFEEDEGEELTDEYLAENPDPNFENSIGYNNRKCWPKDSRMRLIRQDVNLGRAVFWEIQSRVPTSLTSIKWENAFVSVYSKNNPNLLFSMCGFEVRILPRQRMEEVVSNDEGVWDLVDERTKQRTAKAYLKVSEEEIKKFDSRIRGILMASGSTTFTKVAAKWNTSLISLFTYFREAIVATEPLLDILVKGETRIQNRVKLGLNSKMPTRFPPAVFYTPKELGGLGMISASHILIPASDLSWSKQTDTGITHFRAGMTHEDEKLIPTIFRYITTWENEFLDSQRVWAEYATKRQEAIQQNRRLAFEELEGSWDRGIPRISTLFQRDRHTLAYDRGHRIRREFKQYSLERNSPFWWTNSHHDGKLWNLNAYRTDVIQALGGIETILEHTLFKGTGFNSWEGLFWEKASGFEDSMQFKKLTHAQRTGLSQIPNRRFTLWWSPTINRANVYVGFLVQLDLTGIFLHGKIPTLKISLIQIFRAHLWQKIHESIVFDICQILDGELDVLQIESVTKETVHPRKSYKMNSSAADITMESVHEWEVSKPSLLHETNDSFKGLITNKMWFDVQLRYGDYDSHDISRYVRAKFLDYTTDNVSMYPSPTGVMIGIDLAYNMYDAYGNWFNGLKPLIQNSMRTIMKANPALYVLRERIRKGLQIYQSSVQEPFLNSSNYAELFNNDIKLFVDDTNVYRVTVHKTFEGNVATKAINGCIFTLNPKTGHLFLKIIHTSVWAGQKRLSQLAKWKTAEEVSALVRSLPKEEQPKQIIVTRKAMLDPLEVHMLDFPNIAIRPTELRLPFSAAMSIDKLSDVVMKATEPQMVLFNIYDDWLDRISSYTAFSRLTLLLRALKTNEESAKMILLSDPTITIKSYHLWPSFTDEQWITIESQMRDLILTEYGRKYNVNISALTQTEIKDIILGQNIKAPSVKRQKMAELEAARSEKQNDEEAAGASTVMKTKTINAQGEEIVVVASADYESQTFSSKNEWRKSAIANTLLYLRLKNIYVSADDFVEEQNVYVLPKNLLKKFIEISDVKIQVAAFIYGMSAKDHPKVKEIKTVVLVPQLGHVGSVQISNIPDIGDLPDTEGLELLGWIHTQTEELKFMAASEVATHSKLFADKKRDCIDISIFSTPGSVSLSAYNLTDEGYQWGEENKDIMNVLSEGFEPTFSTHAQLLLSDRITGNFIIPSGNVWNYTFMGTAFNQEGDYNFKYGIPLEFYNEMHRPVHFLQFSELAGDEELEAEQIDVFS

Substance: Pre-mRNA-splicing helicase BRR2 (Saccharomyces cerevisiae), P32639 D1247A;D1249A
- effect of a mutation on the interaction: decreasing interaction strength
